Reference: the supplement of paper PMC10126150
± gives the standard deviation of the averaged measurements.

Tested on: ATP
Experiment: switch fluorescence ratio, 500 uM ATP over buffer (Cy3 cluster intensity, sum of 5 cycles each) (fold (ratio)); higher = stronger signal-on switching upon ATP binding; sequences stand for … in TCGTCGGCAGCGTCAGATGTGTATAAGAGACAGTTTTTTTTTTTTTTTTTTTTTTTTT…TC
Conditions: aptamer strand: ATP DNA aptamer (quencher-CACCTGGGGGAGTATTGCGGAGGAAGG + anchor), 100 nM annealed; ATP concentration: 500 uM
Summary of the method: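 Per cluster, summed Cy3 intensity from the target cycles was divided by that from the buffer cycles to give the fluorescence ratio, then averaged per switch-domain sequence. Clusters outside 100-1000 RFU were excluded. The Cy3-labelled switching-strand clusters, on a modified Illumina MiSeq flow-cell, were annealed to 100 nM quencher-labelled ATP aptamer and imaged in selection buffer, then after 15 min with 500 uM ATP at 22 °C, for five cycles with NaOH stripping and re-annealing between them.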
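Note: ATP exposure 15 min at 22 °C before imaging.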

Sequence	switch fluorescence ratio
AATGGGGAAA	1 ± 0.028
AATGGGGAAG	0.985 ± 0.018
AATGGGGGAT	0.988 ± 0.029
AATGGGGGG	0.986 ± 0.039
AATGGGTGAT	0.9826 ± 0.0024
AATGGGTGCA	1.03 ± 0.054
AATGGTATGG	0.982 ± 0.024
AATGGTGTAC	1.03 ± 0.011
AATGGTGTAG	1.003 ± 0.0013
AATGGTTCGG	0.962 ± 0.036
AATGGTTTAT	0.9489 ± 0.0065
AATGGTTTGT	0.999 ± 0.025
AATGTAAAAG	0.988 ± 0.039
AATGTAAAGT	1.001 ± 0.0047
AATGTAATCA	0.997 ± 0.024
AATGTAATTA	1.01 ± 0.011
AATGTATGGG	0.99 ± 0.058
AATGTCAGCG	0.999 ± 0.037
AATGTCTCTC	0.998 ± 0.058
AATGTGAAAA	0.976 ± 0.053
AATGTGCTAG	0.995 ± 0.021
AATGTGCTGG	0.993 ± 0.018
AATGTGGGAA	1.01 ± 0.044
AATGTGGGTC	0.9392 ± 0.006
AATGTGTACT	1.03 ± 0.032

Sequence	switch fluorescence ratio
AATGTGTCA	1.01 ± 0.011
AATGTTCGTT	1.01 ± 0.014
AATGTTCTGG	0.99 ± 0.032
AATGTTGCGT	0.99 ± 0.028
AATGTTGTGG	0.985 ± 0.031
AATGTTTATC	1.027 ± 0.0084
AATGTTTATT	0.954 ± 0.01
AATGTTTTAC	0.97 ± 0.035
AATTAACGGG	1.02 ± 0.019
AATTAATAAG	1.011 ± 0.0076
AATTAATGCA	1.01 ± 0.038
AATTACCGCG	1.03 ± 0.023
AATTACGTGT	1.0006 ± 0.00059
AATTAGACGG	1.03 ± 0.046
AATTAGCATC	1.06 ± 0.044
AATTAGCCAT	0.987 ± 0.011
AATTAGCTGA	1.01 ± 0.029
AATTAGCTGC	1.04 ± 0.043
AATTAGGGCT	0.971 ± 0.026
AATTAGGTGA	1.04 ± 0.031
AATTAGTATG	0.999 ± 0.014
AATTATACGT	1.05 ± 0.014
AATTATAGTT	0.99268 ± 5.5e-05
AATTATCATC	1.02 ± 0.013
AATTATCCTT	1.07 ± 0.037

Sequence	switch fluorescence ratio
AATTATCGAC	1 ± 0.031
AATTATGGTG	1.01 ± 0.012
AATTATGGTT	1.03 ± 0.012
AATTATTCGA	1.02 ± 0.011
AATTATTCGT	1.024 ± 0.01
AATTATTGGT	1.01 ± 0.026
AATTCAACAG	1.01 ± 0.03
AATTCAATGA	1.01 ± 0.045
AATTCACTAA	1.028 ± 0.0063
AATTCAGCCA	0.9878 ± 0.0057
AATTCGATAG	0.966 ± 0.0039
AATTCGCGTT	0.9868 ± 0.004
AATTCGTGCA	1.03 ± 0.036
AATTCTGGTT	0.9664 ± 0.0018
AATTGAGTGT	1.01 ± 0.019
AATTGATTGT	0.993 ± 0.051
AATTGATTTA	1 ± 0.086
AATTGATTTT	1.01 ± 0.03
AATTGCAGAG	1.014 ± 0.0032
AATTGCGTTG	0.979 ± 0.025
AATTGGCCGG	0.989 ± 0.011
AATTGGGGGA	0.979 ± 0.031
AATTGGTAAA	0.9816 ± 0.0044
AATTGGTGCA	0.96 ± 0.011
AATTGTAAAA	0.988 ± 0.027

Sequence	switch fluorescence ratio
AATTGTATAT	0.985 ± 0.042
AATTGTGAGT	0.985 ± 0.024
AATTGTTAAC	0.995 ± 0.016
AATTGTTTAG	0.982 ± 0.034
AATTGTTTTT	1 ± 0.021
AATTTAAAAC	1.02 ± 0.031
AATTTAGGAT	0.989 ± 0.027
AATTTAGGCC	1.023 ± 0.0087
AATTTAGGGA	1 ± 0.0089
AATTTAGGGT	1.01 ± 0.028
AATTTATGGG	0.986 ± 0.021
AATTTATTTG	1.01 ± 0.037
AATTTATTTT	0.991 ± 0.026
AATTTCTGTG	0.978 ± 0.035
AATTTGAATT	0.98 ± 0.013
AATTTGACGT	0.981 ± 0.034
AATTTGATAA	0.981 ± 0.011
AATTTGGTAA	0.999 ± 0.019
AATTTGTAAG	1.01 ± 0.023
AATTTGTACC	0.989 ± 0.013
AATTTGTAGA	0.9996 ± 0.0047
AATTTTACGA	1.04 ± 0.024
AATTTTAGGT	0.959 ± 0.015
AATTTTATCG	0.9741 ± 0.0085
AATTTTATGT	1.01 ± 0.011

Sequence	switch fluorescence ratio
AATTTTGGGA	0.994 ± 0.023
AATTTTGTTT	0.991 ± 0.035
AATTTTTCTC	1.05 ± 0.1
AATTTTTCTT	0.98 ± 0.05
AATTTTTGAT	0.979 ± 0.037
AATTTTTGCT	0.966 ± 0.011
AATTTTTGGG	0.994 ± 0.03
AATTTTTTAA	0.985 ± 0.019
AATTTTTTGT	1.01 ± 0.033
ACAAAACATG	1.16 ± 0.15
ACAAAACGTT	1.028 ± 0.0078
ACAAAATGTT	1.02 ± 0.019
ACAAAGATGA	0.973 ± 0.015
ACAACATCCT	1.08 ± 0.044
ACAACGGAAG	1.03 ± 0.035
ACAACGGGGT	1.01 ± 0.046
ACAAGCGTTT	1.01 ± 0.036
ACAAGGCCTT	0.993 ± 0.031
ACAAGGGGCA	1.01 ± 0.028
ACAAGGGGCT	1.02 ± 0.021
ACAAGGTGTT	1.2 ± 0.022
ACAAGTTCAG	0.993 ± 0.023
ACAATGAGTT	0.985 ± 0.015
ACAATGTCGG	0.998 ± 0.011
ACAATGTGTG	0.985 ± 0.038

Sequence	switch fluorescence ratio
ACACAAATGA	1.01 ± 0.024
ACACATAGGG	0.9985 ± 0.0084
ACACCGGTTA	1.01 ± 0.035
ACACCTAGGC	1.12 ± 0.054
ACACGATGGG	1 ± 0.019
ACACGGGGAA	1.0184 ± 0.00046
ACACGGGTTA	1 ± 0.047
ACACGTACTT	1.52 ± 0.065
ACACGTGGTT	1.04 ± 0.076
ACACGTTCTT	0.996 ± 0.019
ACACTAATCT	1.16 ± 0.15
ACACTACGTC	1.51 ± 0.056
ACACTCAGAG	1.019 ± 0.004
ACACTGGCCC	0.964 ± 0.038
ACACTGGGCA	1.022 ± 0.0053
ACAGAAGGGT	0.972 ± 0.098
ACAGAAGGTC	0.977 ± 0.015
ACAGACTCGG	1.039 ± 0.0036
ACAGAGGGTG	1.08 ± 0.095
ACAGAGGTTT	0.984 ± 0.035
ACAGATGAGC	1.01 ± 0.056
ACAGATGGGA	1.04 ± 0.046
ACAGCGCAAT	2.12 ± 0.94
ACAGCGCGAC	1.32 ± 0.017
ACAGCGCTTT	1.03 ± 0.025

Sequence	switch fluorescence ratio
ACAGCGGGA	1.0254 ± 4.6e-06
ACAGCGTGTG	1.03 ± 0.011
ACAGCTGCTT	0.981 ± 0.028
ACAGCTGTTT	0.998 ± 0.027
ACAGGAGAC	1.0379 ± 0.00024
ACAGGGAGTA	0.9864 ± 0.003
ACAGGGCGGG	1.01 ± 0.035
ACAGGGCTAT	1.02 ± 0.014
ACAGGGGATG	1.08 ± 0.16
ACAGGGGCAG	1.02 ± 0.017
ACAGGGGGAG	0.983 ± 0.024
ACAGGGGTCT	1.06 ± 0.024
ACAGGGTCG	0.948 ± 0.025
ACAGGTTAAT	1.02 ± 0.02
ACAGGTTAGT	0.989 ± 0.034
ACAGGTTGAA	0.996 ± 0.036
ACAGGTTTTT	1.01 ± 0.023
ACAGTAACTT	1.092 ± 0.0098
ACAGTAGGA	1.06 ± 0.013
ACAGTATCGG	1.06 ± 0.013
ACAGTATGGA	1 ± 0.011
ACAGTATTCT	1.047 ± 0.01
ACAGTCGTAG	1 ± 0.015
ACAGTCTGTT	1.01 ± 0.048
ACAGTGGGAA	1.014 ± 0.0044

Sequence	switch fluorescence ratio
ACAGTGGGAG	1.011 ± 0.003
ACAGTGGTCG	1.06 ± 0.033
ACAGTGTGGT	1.07 ± 0.031
ACAGTTGCTC	1.02 ± 0.02
ACATAACGAA	1.21 ± 0.013
ACATAATATT	1.06 ± 0.036
ACATACTGCG	1.323 ± 0.0038
ACATAGAACG	1.06 ± 0.038
ACATAGCGAA	1.13 ± 0.026
ACATAGTAAT	1.001 ± 0.0092
ACATAGTTTT	0.9994 ± 0.0075
ACATATCCGT	1.01 ± 0.021
ACATCAAGGG	1.06 ± 0.055
ACATCCCGTT	1.05 ± 0.048
ACATCGGCTT	0.998 ± 0.015
ACATGAATTT	1 ± 0.029
ACATGACGGG	1.06 ± 0.015
ACATGCCGGG	1.03 ± 0.085
ACATGGAGGG	1.01 ± 0.057
ACATGGGATT	1.01 ± 0.043
ACATGGGGAA	0.994 ± 0.012
ACATGTGGGG	1.04 ± 0.025
ACATTAAAAA	1.26 ± 0.013
ACATTAGTTT	1.013 ± 0.0056
ACATTATGGA	1.035 ± 0.0081
